# Literature values, collected in publication PMC5358871.
# Molecular target: Bfd (Pseudomonas aeruginosa) (UniProt Q9HY80)
# Experiment: SPR, ITC
# Chain of UniProt Q9HY80 (Q9HY80 whole entry): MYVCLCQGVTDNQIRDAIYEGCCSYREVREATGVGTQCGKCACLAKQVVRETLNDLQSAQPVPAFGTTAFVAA
substance,measurement,value
BfrB (from UniProt Q9HY79),Kd,3 µM
